Test results taken from patent US20100184709.

Target: T1, Ac-LRSR-amc
T1 chain: LRSR

B1: recombinant purified GST-Malt1 protein, oligomerized by binding to glutathione sepharose (protein)
chain: MSLLGDPLQALPPSAAPTGPLLAPPAGATLNRLREPLLRRLSELLDQAPEGRGWRRLAELAGSRGRLRLSCLDLEQCSLKVLEPEGSPSLCLLKLMGEKGCTVTELSDFLQAMEHTEVLQLLSPPGIKITVNPESKAVLAGQFVKLCCRATGHPFVQYQWFKMNKEIPNGNTSELIFNAVHVKDAGFYVCRVNNNFTFEFSQWSQLDVCDIPESFQRSVDGVSESKLQICVEPTSQKLMPGSTLVLQCVAVGSPIPHYQWFKNELPLTHETKKLYMVPYVDLEHQGTYWCHVYNDRDSQDSKKVEIIIGRTDEAVECTEDELNNLGHPDNKEQTTDQPLAKDKVALLIGNMNYREHPKLKAPLVDVYELTNLLRQLDFKVVSLLDLTEYEMRNAVDEFLLLLDKGVYGLLYYAGHGYENFGNSFMVPVDAPNPYRSENCLCVQNILKLMQEKETGLNVFLLDMCRKRNDYDDTIPILDALKVTANIVFGYATCQGAEAFEIQHSGLANGIFMKFLKDRLLEDKKITVLLDEVAEDMGKCHLTKGKQALEIRSSLSEKRALTDPIQGTEYSAESLVRNLQWAKAHELPESMCLKFDCGVQIQLGFAAEFSNVMIIYTSIVYKPPEIIMCDAYVTDFPLDLDIDPKDANKGTPEETGSYLVSKDLPKHCLYTRLSSLQKLKEHLVFTVCLSYQYSGLEDTVEDKQEVNVGKPLIAKLDMHRGLGRKTCFQTCLMSNGPYQSSAATSGGAGHYHSLQDPFHGVYHSHPGNPSNVTPADSCHCSRTPDAFISSFAHHASCHFSRSNVPVETTDEIPFSFSDRLRISEK
**Q.** For B1, which “LRSR-amc cleavage activity of recombinant enzyme (fluorescence)” value is on record?
**A.** The value was “recombinant purified GST-Malt1 protein, oligomerized by binding to glutathione sepharose, was tested for LRSR-amc clavage activity”.
